Laboratory results taken from patent US20260201008A1, “SECRETIN-DERIVED GLP1R SELECTIVE AGONISTS” (GUBRA A/S, priority 2023, published 2026).
Numbered stars: 1 amine (or outer) side, 2 acyl side, 3 side chain; on linkers, the order of the positions; unused ones are H or OH. Square brackets hold non-standard residues; d marks the D form. Side chains are listed from the residue outwards. Ends that are not written are not given here. * marks the point of attachment. C20 diacid = O=C(O)CCCCCCCCCCCCCCCCCCC(=O)*; γGlu = O=C(O)[C@H](CCC(=O)[*:2])N[*:1]; AEEA = NCCOCCOCC(=O)O; Aib = CC(C)(N)C(=O)O

Tests used:
[1] = molecular target: human GLP-1 receptor (hGLP1R) (human, UniProt P43220 24-463); experiment: cell-based or functional assay
[2] = molecular target: human secretin receptor (hSCTR) (human, UniProt P47872 23-440); experiment: cell-based or functional assay
Chain of human secretin receptor (hSCTR) (P47872 23-440): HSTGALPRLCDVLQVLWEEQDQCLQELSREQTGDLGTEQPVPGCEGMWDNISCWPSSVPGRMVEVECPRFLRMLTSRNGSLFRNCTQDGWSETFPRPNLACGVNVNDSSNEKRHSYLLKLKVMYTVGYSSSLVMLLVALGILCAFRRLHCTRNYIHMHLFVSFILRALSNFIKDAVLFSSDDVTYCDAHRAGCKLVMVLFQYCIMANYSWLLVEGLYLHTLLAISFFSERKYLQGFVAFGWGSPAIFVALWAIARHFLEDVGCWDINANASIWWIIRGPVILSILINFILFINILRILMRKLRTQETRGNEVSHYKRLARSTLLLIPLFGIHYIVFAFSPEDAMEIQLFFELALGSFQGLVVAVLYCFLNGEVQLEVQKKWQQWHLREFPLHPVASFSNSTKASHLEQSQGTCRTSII

| Binder | pEC50 hGLPR1 [1] | pEC50 hSCTR [2] |
| --- | --- | --- |
| H[Aib]EGTFTSDVSELK([AEEA-AEEA-γGlu-C20 diacid])ETAATQRFLEHLV-NH2 [SEQ ID NO: 54] | 10.9 -log M | 6.9 -log M |
| H[Aib]EGTFTSDVSELK([AEEA-AEEA-γGlu-C20 diacid])EEAATQRFLEHLV-NH2 [SEQ ID NO: 55] | 11 -log M | 6.8 -log M |
| H[Aib]EGTFTSDVSTLK([AEEA-AEEA-γGlu-C20 diacid])EEAASQRFLEHLV-NH2 [SEQ ID NO: 6] | 10.5 -log M | 6.5 -log M |
| H[Aib]EGTFTSDVSFLK([AEEA-AEEA-γGlu-C20 diacid])EEAAEQRFLEHLV-NH2 [SEQ ID NO: 56] | 10.4 -log M | 5.1 -log M |
| H[Aib]EGTFTSDVSELK([AEEA-AEEA-γGlu-C20 diacid])ETAAAQRFLEHLV-NH2 [SEQ ID NO: 57] | 10.6 -log M | 5.3 -log M |
| H[Aib]EGTFTSDVSYLK([AEEA-AEEA-γGlu-C20 diacid])ETAAQQRFLEHLV-NH2 [SEQ ID NO: 58] | 10.6 -log M | 6 -log M |
| H[Aib]EGTFTSDVSRLK([AEEA-AEEA-γGlu-C20 diacid])E[Aib]AASQRFLEHLV-NH2 [SEQ ID NO: 59] | 10.5 -log M | 6.9 -log M |
| H[Aib]EGTFTSDVSRLK([AEEA-AEEA-γGlu-C20 diacid])EEAAAQRFLEHLV-NH2 [SEQ ID NO: 60] | 10.5 -log M | 6.6 -log M |
| H[Aib]EGTFTSDVSYLK([AEEA-AEEA-γGlu-C20 diacid])EEAAAQRFLEHLV-NH2 [SEQ ID NO: 61] | 10.9 -log M | 6.1 -log M |
| H[Aib]EGTFTSDVSVLK([AEEA-AEEA-γGlu-C20 diacid])ETAAAQRFLEHLV-NH2 [SEQ ID NO: 62] | 10 -log M | 5.7 -log M |
| H[Aib]EGTFTSDVSFLK([AEEA-AEEA-γGlu-C20 diacid])EEAAAQRFLEHLV-NH2 [SEQ ID NO: 63] | 10.3 -log M | 5 -log M |
| H[Aib]EGTFTSDVSRLK([AEEA-AEEA-γGlu-C20 diacid])E[Aib]AA[Aib]QRFLEHLV-NH2 [SEQ ID NO: 64] | 10.2 -log M | 6.5 -log M |
| H[Aib]EGTFTSDVSRLK([AEEA-AEEA-γGlu-C20 diacid])EEAATQRFLEHLV-NH2 [SEQ ID NO: 65] | 11.5 -log M | 7.6 -log M |
| H[Aib]EGTFTSDVSELK([AEEA-AEEA-γGlu-C20 diacid])E[Aib]AA[Aib]QRFLEHLV-NH2 [SEQ ID NO: 7] | 10.2 -log M | 6 -log M |
| H[Aib]EGTFTSDVSYLK([AEEA-AEEA-γGlu-C20 diacid])EFAASQRFLEHLV-NH2 [SEQ ID NO: 66] | 10.4 -log M | 5.5 -log M |
| H[Aib]EGTFTSDVSTLK([AEEA-AEEA-γGlu-C20 diacid])ELAATQRFLEHLV-NH2 [SEQ ID NO: 67] | 10.3 -log M | 6.4 -log M |
| H[Aib]EGTFTSDVSRLK([AEEA-AEEA-γGlu-C20 diacid])EFAA[Aib]QRFLEHLV-NH2 [SEQ ID NO: 68] | 10 -log M | 5.9 -log M |
| H[Aib]EGTFTSDVSELK([AEEA-AEEA-γGlu-C20 diacid])EFAASQRFLEHLV-NH2 [SEQ ID NO: 8] | 10.3 -log M | 5.8 -log M |
| H[Aib]EGTFTSDVSRLK([AEEA-AEEA-γGlu-C20 diacid])ELAAAQRFLEHLV-NH2 [SEQ ID NO: 9] | 10.2 -log M | 6 -log M |

More lines, now with the values ahead:

| pEC50 hGLPR1 [1] | pEC50 hSCTR [2] | Binder |
| --- | --- | --- |
| 10.8 -log M | 4.8 -log M | H[Aib]EGTFTSDVSYLK([AEEA-AEEA-γGlu-C20 diacid])ETAAEQRFLEHLV-NH2 [SEQ ID NO: 69] |
| 10.7 -log M | 7 -log M | H[Aib]EGTFTSDVSFLK([AEEA-AEEA-γGlu-C20 diacid])ETAATQRFLEHLV-NH2 [SEQ ID NO: 70] |
| 10.2 -log M | 6 -log M | H[Aib]EGTFTSDVSRLK([AEEA-AEEA-γGlu-C20 diacid])ETAASQRFLEHLV-NH2 [SEQ ID NO: 71] |
| 10 -log M | 6 -log M | H[Aib]EGTFTSDVSRLK([AEEA-AEEA-γGlu-C20 diacid])EFAAEQRFLEHLV-NH2 [SEQ ID NO: 72] |
| 11.2 -log M | 7.1 -log M | H[Aib]EGTFTSDVSRLK([AEEA-AEEA-γGlu-C20 diacid])EEAAQQRFLEHLV-NH2 [SEQ ID NO: 73] |
| 10.2 -log M | 4.9 -log M | H[Aib]EGTFTSDVSFLK([AEEA-AEEA-γGlu-C20 diacid])E[Aib]AASQRFLEHLV-NH2 [SEQ ID NO: 74] |
| 10.6 -log M | 5.5 -log M | H[Aib]EGTFTSDVSYLK([AEEA-AEEA-γGlu-C20 diacid])EEAASQRFLEHLV-NH2 [SEQ ID NO: 75] |
| 10.1 -log M | 5 -log M | H[Aib]EGTFTSDVSYLK([AEEA-AEEA-γGlu-C20 diacid])EFAAQQRFLEHLV-NH2 [SEQ ID NO: 76] |
| 10.7 -log M | 5.8 -log M | H[Aib]EGTFTSDVSTLK([AEEA-AEEA-γGlu-C20 diacid])EEAA[Aib]QRFLEHLV-NH2 [SEQ ID NO: 77] |
| 10.3 -log M | 5.4 -log M | H[Aib]EGTFTSDVSTLK([AEEA-AEEA-γGlu-C20 diacid])ELAAEQRFLEHLV-NH2 [SEQ ID NO: 78] |
| 10 -log M | 5.5 -log M | H[Aib]EGTFTSDVSTLK([AEEA-AEEA-γGlu-C20 diacid])ELAA[Aib]QRFLEHLV-NH2 [SEQ ID NO: 79] |
| 10.7 -log M | 6.1 -log M | H[Aib]EGTFTSDVSELK([AEEA-AEEA-γGlu-C20 diacid])ELAATQRFLEHLV-NH2 [SEQ ID NO: 80] |
| 10.1 -log M | 7.1 -log M | H[Aib]EGTFTSDVSRLK([AEEA-AEEA-γGlu-C20 diacid])E[Aib]AAAQRFLEHLV-NH2 [SEQ ID NO: 81] |
| 11 -log M | 7 -log M | H[Aib]EGTFTSDVSELK([AEEA-AEEA-γGlu-C20 diacid])E[Aib]AATQRFLEHLV-NH2 [SEQ ID NO: 82] |
| 10.5 -log M | 5.8 -log M | H[Aib]EGTFTSDVSFLK([AEEA-AEEA-γGlu-C20 diacid])EEAAQQRFLEHLV-NH2 [SEQ ID NO: 83] |
| 10.1 -log M | 5.4 -log M | H[Aib]EGTFTSDVSFLK([AEEA-AEEA-γGlu-C20 diacid])EFAAAQRFLEHLV-NH2 [SEQ ID NO: 84] |
| 9.9 -log M | 5.8 -log M | H[Aib]EGTFTSDVSRLK([AEEA-AEEA-γGlu-C20 diacid])ETAA[Aib]QRFLEHLV-NH2 [SEQ ID NO: 85] |
| 9.7 -log M | 5.4 -log M | H[Aib]EGTFTSDVSYLK([AEEA-AEEA-γGlu-C20 diacid])ELAAAQRFLEHLV-NH2 [SEQ ID NO: 86] |
| 10.4 -log M | 5.8 -log M | H[Aib]EGTFTSDVSELK([AEEA-AEEA-γGlu-C20 diacid])EEAASQRFLEHLV-NH2 [SEQ ID NO: 87] |
| 11.4 -log M | 6.8 -log M | H[Aib]EGTFTSDVSTLK([AEEA-AEEA-γGlu-C20 diacid])E[Aib]AAQQRFLEHLV-NH2 [SEQ ID NO: 88] |
| 10.7 -log M | 5.7 -log M | H[Aib]EGTFTSDVSTLK([AEEA-AEEA-γGlu-C20 diacid])EFAAEQRFLEHLV-NH2 [SEQ ID NO: 89] |
| 10.5 -log M | 5.8 -log M | H[Aib]EGTFTSDVSVLK([AEEA-AEEA-γGlu-C20 diacid])EEAAQQRFLEHLV-NH2 [SEQ ID NO: 90] |
